Target: T1, CD70 on human cancer cell lines (A498, ACHN, SK-OV-3, Hs 766T, NCI-H1975, Calu-1, DU 145, SNU-1, MM.1S, HuT78) (human, UniProt P32970 1-193)
T1 sequence (looked up): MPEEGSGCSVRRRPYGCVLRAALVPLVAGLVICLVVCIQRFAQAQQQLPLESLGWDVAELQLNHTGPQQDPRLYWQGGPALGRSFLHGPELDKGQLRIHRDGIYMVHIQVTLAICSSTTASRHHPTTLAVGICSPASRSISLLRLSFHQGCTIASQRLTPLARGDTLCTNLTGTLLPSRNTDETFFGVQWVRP
Experiment: cell-based or functional assay

cell lysis of CD70+ A498 cells by TRAC-/β2M-/CD70-/anti-CD70 CAR+ T cells, Cell titer-Glo, 24 h, T cell:A498 ratios 1:1 and 0.5:1: > 90%
cell lysis of CD70+ A498 cells by TRAC-/β2M-/anti-CD70 CAR+ T cells (2X KO), Cell titer-Glo, 24 h, T cell:A498 ratios 1:1 and 0.5:1: < 90%
B1: anti-CD70 CAR (CD70B scFv with 41BB), as expressed on the surface of gene-edited human T cells (CTX130; TRAC-/β2M-/CD70-/anti-CD70 CAR+ T cells) (other)
chain: QVQLVQSGAEVKKPGASVKVSCKASGYTFTNYGMNWVRQAPGQGLKWMGWINTYTGEPTYADAFKGRVTMTRDTSISTAYMELSRLRSDDTAVYYCARDYGDYGMDYWGQGTTVTVSSGGGGSGGGGSGGGGSGDIVMTQSPDSLAVSLGERATINCRASKSVSTSGYSFMHWYQQKPGQPPKLLIYLASNLESGVPDRFSGSGSGTDFTLTISSLQAEDVAVYYCQHSREVPWTFGQGTKVEIKSAAAFVPVFLPAKPTTTPAPRPPTPAPTIASQPLSLRPEACRPAAGGAVHTRGLDFACDIYIWAPLAGTCGVLLLSLVITLYCNHRNRKRGRKKLLYIFKQPFMRPVQTTQEEDGCSCRFPEEEEGGCELRVKFSRSADAPAYQQGQNQLYNELNLGRREEYDVLDKRRGRDPEMGGKPRRKNPQEGLYNELQKDKMAEAYSEIGMKGERRRGKGHDGLYQGLSTATKDTYDALHMQALPPR
cell kill of A498, ACHN, SK-OV-3 and Hs-766T cells by 3X KO CD70 CAR+ T cells, flow cytometry, 24 h, 1:1 effector:target cell ratio: > 50%
cell kill of A498, ACHN, SK-OV-3 and Hs-766T cells by 3X KO CD70 CAR+ T cells, flow cytometry, 24 h, 4:1 effector:target cell ratio: > 60%
cell kill of NCI-H1975, Calu-1 and DU 145 cells (medium to low CD70 expression) by 3X KO CD70 CAR+ T cells, flow cytometry, 24 h, 4:1 effector:target cell ratio: > 30%
cell kill of SKOV-3, Hs-766T and NCI-H1975 cells by 3X KO CD70 CAR+ T cells, flow cytometry, 96 h, 1:1 effector:target cell ratio: > 80%
